Results reported in patent US20130281922A1 (KANCERA, published 2013).

Target: T1, human ROR1 on cells (human, UniProt Q01973 30-937)
T1 construct: whole, on cells
Experiment: Scatchard plot of 125I-labelled 009-G03 binding to RPMI-8226 cells, 2.5 h on ice
Description: Antibody was labelled with ¹²⁵I using free Iodine and test tubes pre-coated with the oxidant reagent Iodogen (1,3,4,6-tetrachloro-3α,6α-diphenylglycoluri, Thermo scientific), according to manufactures instruction. Briefly 200 μg of antibody was labeled for 10 minutes in PBS and free iodine were removed using a small disposable desalting columns (NAP 5, GE Healthcare Life science). […] 0.5×10⁶ cells were incubated for 2.5 h on ice with different concentrations of ¹²⁵I-labelled 009-G03 antibody. Free nonbinding antibody (F) was separated from cell bound antibody (B) by centrifugation through a 40% Ficoll-cushion and samples were analysed in a gamma counter (FIG. 29).

T1 sequence (Q01973 30-937): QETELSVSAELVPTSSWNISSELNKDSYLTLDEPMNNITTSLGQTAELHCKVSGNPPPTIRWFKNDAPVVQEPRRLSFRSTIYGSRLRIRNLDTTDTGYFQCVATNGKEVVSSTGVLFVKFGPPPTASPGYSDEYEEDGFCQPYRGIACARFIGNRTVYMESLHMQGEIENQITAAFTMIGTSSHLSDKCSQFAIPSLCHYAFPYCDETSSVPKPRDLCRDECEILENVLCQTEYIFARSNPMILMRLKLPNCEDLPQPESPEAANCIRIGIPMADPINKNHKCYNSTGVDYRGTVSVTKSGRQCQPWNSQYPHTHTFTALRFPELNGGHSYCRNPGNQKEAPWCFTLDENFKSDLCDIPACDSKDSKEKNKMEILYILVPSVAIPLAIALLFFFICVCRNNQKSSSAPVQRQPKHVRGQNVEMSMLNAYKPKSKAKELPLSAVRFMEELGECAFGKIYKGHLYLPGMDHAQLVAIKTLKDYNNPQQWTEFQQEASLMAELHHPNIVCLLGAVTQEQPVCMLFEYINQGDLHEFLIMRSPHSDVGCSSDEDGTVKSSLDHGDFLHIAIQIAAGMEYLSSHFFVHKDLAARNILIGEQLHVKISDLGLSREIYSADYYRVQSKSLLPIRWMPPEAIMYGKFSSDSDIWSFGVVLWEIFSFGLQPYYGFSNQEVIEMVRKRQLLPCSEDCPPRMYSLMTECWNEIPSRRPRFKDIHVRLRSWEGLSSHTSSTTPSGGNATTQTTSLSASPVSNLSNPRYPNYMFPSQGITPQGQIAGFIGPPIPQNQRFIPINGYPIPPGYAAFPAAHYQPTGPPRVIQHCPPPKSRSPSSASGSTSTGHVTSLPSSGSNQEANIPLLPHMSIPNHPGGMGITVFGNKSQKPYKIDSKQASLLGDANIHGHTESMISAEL

- Kd: 1 nM
B1: ROR1-009-G03 (antibody, V domains shown)
VH: EVQLLESGGGLVQPGGSLRLSCAASGFTFSDYYMSWIRQAPGKGLEWVSAISGSGGSTYYADSVKGRFTISRDNSKNTLYLQMNSLRAEDTAVYYCAKEDWEGASFDYWGQGTLVTVSS
VL: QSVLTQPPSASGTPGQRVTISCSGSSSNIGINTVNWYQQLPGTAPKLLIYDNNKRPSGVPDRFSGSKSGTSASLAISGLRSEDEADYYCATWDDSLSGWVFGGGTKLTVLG
notes: also called ROR 009 G03; ROR1 specific mAb 009-G03
